According to PMC9482650, “Quantitative fragmentomics allow affinity mapping of interactomes” (Nature Communications, 2022):

Key:
Assay in all cases: holdup assay
Set-up in all cases: key: below the threshold = too weak to quantify, mostly under pKd 3.1 to 4
[1] = target: GRID2IP_1, A4D2P6
[2] = target: T1, APBA1_1, Q02410
T1 sequence (Q02410 651-752, limits assumed, looked up): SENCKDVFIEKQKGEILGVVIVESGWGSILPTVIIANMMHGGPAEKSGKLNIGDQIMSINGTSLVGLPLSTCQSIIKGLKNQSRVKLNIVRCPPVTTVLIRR

[3] = target: SCRIB_1, Q14160
[4] = target: GOPC, Q9HD26
[5] = target: DLG1_3, Q12959
[6] = target: LAP2, Q96RT1
[7] = target: T2, SHANK1, Q9Y566
T2 sequence (Q9Y566 658-767, limits assumed, looked up): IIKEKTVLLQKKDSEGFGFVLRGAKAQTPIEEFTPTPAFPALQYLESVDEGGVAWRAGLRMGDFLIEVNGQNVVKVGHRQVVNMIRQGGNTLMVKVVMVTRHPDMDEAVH

[8] = target: T3, RADIL, Q96JH8
T3 sequence (Q96JH8 971-1071, limits assumed, looked up): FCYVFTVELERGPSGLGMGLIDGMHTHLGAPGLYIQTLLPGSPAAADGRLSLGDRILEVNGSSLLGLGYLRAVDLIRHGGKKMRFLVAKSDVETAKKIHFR

[9] = target: T4, PARD3B_1, Q8TEW8
T4 sequence (Q8TEW8 196-299, limits assumed, looked up): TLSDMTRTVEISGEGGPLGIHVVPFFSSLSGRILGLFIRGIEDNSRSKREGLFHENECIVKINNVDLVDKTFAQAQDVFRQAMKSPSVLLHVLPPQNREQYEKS

[10] = target: NHERF4_2, Q86UT5
[11] = target: Inadl_9, Q8NI35
[12] = target: AHNAK1, Q09666
[13] = target: T5, MPDZ_12, O75970
T5 sequence (O75970 1857-1958, limits assumed, looked up): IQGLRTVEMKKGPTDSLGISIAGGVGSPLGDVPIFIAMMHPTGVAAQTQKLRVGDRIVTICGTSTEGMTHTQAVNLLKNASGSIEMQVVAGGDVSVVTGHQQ

[14] = target: T6, ARHGAP21, Q5T5U3
T6 sequence (Q5T5U3 45-169, limits assumed, looked up): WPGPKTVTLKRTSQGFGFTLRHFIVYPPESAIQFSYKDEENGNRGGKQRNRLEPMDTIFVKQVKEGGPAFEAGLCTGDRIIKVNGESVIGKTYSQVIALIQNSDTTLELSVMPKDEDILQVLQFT

[15] = target: T7, RAPGEF6, Q8TEU7
T7 sequence (Q8TEU7 525-625, limits assumed, looked up): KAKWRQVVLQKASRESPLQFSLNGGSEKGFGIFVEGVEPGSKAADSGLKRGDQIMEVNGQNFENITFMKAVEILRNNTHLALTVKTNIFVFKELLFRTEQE

[16] = target: FRMPD2_2, Q68DX3
[17] = target: MAGI2_4, Q86UL8
[18] = target: IL16_1, Q14005
[19] = target: T8, MPDZ_5, O75970
T8 sequence (O75970 695-796, limits assumed, looked up): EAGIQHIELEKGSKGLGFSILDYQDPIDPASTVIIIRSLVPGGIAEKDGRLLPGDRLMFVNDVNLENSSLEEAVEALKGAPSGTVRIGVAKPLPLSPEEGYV

[20] = target: DLG5_1, Q8TDM6
[21] = target: T9, APBA2_1, Q99767
T9 sequence (Q99767 563-664, limits assumed, looked up): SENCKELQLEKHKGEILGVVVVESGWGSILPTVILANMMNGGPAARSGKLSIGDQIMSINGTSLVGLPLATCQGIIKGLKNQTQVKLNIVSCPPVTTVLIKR

[22] = target: NHERF4_1, Q86UT5-2
[23] = target: MAGI3_2, Q5TCQ9
[24] = target: GRASP, Q7Z6J2
[25] = target: LNX1_1, Q8TBB1
[26] = target: T10, MPDZ_10, O75970
T10 sequence (O75970 1624-1722, limits assumed, looked up): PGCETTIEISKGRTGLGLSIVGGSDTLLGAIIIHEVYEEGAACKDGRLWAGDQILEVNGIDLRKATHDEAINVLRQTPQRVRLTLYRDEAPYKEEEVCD

[27] = plain residues with an end cap or a label only (N-terminal biotin on a linker: ttds)
[28] = plain residues with an end cap or a label only (N-terminal biotin on a linker: ahx)
[29] = plain residues with an end cap or a label only (N-terminal biotin on a linker: ado-ado)

Sequence of GRID2IP_1, A4D2P6 (A4D2P6 1-87): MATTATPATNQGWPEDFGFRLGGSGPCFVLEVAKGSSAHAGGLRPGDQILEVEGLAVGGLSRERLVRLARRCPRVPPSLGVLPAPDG
Sequence of NHERF4_1, Q86UT5-2 (Q86UT5 other isoform, or with tags, fused parts or gaps): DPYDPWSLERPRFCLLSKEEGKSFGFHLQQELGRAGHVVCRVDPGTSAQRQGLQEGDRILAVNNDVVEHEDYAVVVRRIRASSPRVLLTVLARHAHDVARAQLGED
Sequence of LAP2, Q96RT1 (Q96RT1 other isoform, or with tags, fused parts or gaps): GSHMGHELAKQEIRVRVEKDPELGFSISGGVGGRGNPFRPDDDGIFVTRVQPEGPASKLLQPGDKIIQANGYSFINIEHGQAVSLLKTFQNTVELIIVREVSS
Sequence of GRASP, Q7Z6J2 (Q7Z6J2 96-193): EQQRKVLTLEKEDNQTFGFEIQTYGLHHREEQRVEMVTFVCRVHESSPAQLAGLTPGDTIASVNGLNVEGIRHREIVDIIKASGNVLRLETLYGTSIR
Sequence of FRMPD2_2, Q68DX3 (Q68DX3 944-1038): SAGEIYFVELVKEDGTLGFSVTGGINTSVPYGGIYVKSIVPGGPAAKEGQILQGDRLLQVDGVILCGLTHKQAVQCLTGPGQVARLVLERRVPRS
Sequence of Inadl_9, Q8NI35 (Q8NI35 1530-1615): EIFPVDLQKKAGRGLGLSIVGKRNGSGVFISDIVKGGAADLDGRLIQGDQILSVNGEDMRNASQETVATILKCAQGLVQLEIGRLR
Sequence of AHNAK1, Q09666 (Q09666 4-100): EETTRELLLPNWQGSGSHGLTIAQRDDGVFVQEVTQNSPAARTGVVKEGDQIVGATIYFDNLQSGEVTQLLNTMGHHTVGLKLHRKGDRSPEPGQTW
Sequence of DLG1_3, Q12959 (Q12959 457-571): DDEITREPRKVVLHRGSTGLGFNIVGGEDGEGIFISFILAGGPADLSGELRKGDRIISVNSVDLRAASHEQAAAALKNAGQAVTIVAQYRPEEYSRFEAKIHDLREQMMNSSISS
Sequence of NHERF4_2, Q86UT5 (Q86UT5 220-308): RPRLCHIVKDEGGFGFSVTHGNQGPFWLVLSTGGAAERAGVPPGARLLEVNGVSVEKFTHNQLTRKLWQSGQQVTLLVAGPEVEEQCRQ
Sequence of MAGI2_4, Q86UL8 (Q86UL8 772-865): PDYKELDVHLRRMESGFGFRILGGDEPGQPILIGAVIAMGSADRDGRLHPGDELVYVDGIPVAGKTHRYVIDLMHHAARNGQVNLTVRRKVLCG
Sequence of DLG5_1, Q8TDM6 (Q8TDM6 617-713): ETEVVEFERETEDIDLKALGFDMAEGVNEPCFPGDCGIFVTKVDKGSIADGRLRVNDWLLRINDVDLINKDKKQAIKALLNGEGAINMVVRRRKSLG
Sequence of SCRIB_1, Q14160 (Q14160 718-814): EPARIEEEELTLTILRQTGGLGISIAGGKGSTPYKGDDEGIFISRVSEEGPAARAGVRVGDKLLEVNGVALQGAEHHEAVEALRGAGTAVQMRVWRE
Sequence of IL16_1, Q14005 (Q14005 210-306): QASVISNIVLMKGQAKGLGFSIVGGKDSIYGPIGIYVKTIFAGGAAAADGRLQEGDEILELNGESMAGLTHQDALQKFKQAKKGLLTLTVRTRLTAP
Sequence of MAGI3_2, Q5TCQ9 (Q5TCQ9 398-503): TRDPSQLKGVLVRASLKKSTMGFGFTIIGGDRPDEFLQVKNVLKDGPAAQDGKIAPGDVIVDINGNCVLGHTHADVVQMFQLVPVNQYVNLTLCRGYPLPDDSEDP
Sequence of LNX1_1, Q8TBB1 (Q8TBB1 261-371): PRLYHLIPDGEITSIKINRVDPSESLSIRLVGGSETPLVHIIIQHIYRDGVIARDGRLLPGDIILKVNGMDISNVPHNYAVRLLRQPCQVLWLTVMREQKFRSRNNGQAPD

Binder: DPLTPSRSQL [DGKK, Q5KSL6]
- pKd [1, 27]: below the threshold
- pKd [2, 27]: below the threshold
- pKd [3, 27]: below the threshold
- pKd [4, 27]: below the threshold
- pKd [5, 27]: below the threshold
- pKd [6, 27]: below the threshold
- pKd [7, 27]: 4.11
- pKd [8, 27]: below the threshold
- pKd [9, 27]: below the threshold
- pKd [10, 27]: below the threshold
- pKd [11, 27]: below the threshold
- pKd [12, 27]: below the threshold
- pKd [13, 27]: below the threshold
- pKd [14, 27]: below the threshold
- pKd [15, 27]: below the threshold
- pKd [16, 27]: below the threshold
- pKd [17, 27]: below the threshold
- pKd [18, 27]: below the threshold
- pKd [19, 27]: below the threshold
- pKd [20, 27]: below the threshold
- pKd [21, 27]: below the threshold
- pKd [22, 27]: 3.81
- pKd [23, 27]: 3.55
- pKd [24, 27]: 4.17
- pKd [25, 27]: below the threshold
- pKd [26, 27]: below the threshold

Binder: RNCSTNDSLL [ADRB2, P07550]
- pKd [1, 28]: below the threshold
- pKd [2, 28]: 3.63
- pKd [3, 28]: 3.58
- pKd [4, 28]: below the threshold
- pKd [5, 28]: below the threshold
- pKd [6, 28]: below the threshold
- pKd [7, 28]: below the threshold
- pKd [8, 28]: below the threshold
- pKd [9, 28]: 3.75
- pKd [10, 28]: below the threshold
- pKd [11, 28]: below the threshold
- pKd [12, 28]: below the threshold
- pKd [13, 28]: below the threshold
- pKd [14, 28]: 3.56
- pKd [15, 28]: below the threshold
- pKd [16, 28]: below the threshold
- pKd [17, 28]: 3.55
- pKd [18, 28]: below the threshold
- pKd [19, 28]: below the threshold
- pKd [20, 28]: below the threshold
- pKd [21, 28]: below the threshold
- pKd [22, 28]: 3.88
- pKd [23, 28]: below the threshold
- pKd [24, 28]: below the threshold
- pKd [25, 28]: below the threshold
- pKd [26, 28]: 3.69

Binder: QKNKDKEYYV [NRXN3_rs746444206, Q9Y4C0]
- pKd [1, 29]: below the threshold
- pKd [2, 29]: below the threshold
- pKd [3, 29]: below the threshold
- pKd [4, 29]: below the threshold
- pKd [5, 29]: below the threshold
- pKd [6, 29]: below the threshold
- pKd [7, 29]: below the threshold
- pKd [8, 29]: 4.51
- pKd [9, 29]: 3.84
- pKd [10, 29]: below the threshold
- pKd [11, 29]: 4.41
- pKd [12, 29]: below the threshold
- pKd [13, 29]: below the threshold
- pKd [14, 29]: 4.09
- pKd [15, 29]: below the threshold
- pKd [16, 29]: 3.62
- pKd [17, 29]: 3.54
- pKd [18, 29]: below the threshold
- pKd [19, 29]: 4.34
- pKd [20, 29]: below the threshold
- pKd [21, 29]: below the threshold
- pKd [22, 29]: below the threshold
- pKd [23, 29]: 4.63
- pKd [24, 29]: below the threshold
- pKd [25, 29]: below the threshold
- pKd [26, 29]: below the threshold

Binder: SPLHSLETSL [ATP2B1, P20020]
- pKd [1, 27]: below the threshold
- pKd [2, 27]: below the threshold
- pKd [3, 27]: 5.36
- pKd [4, 27]: 4.13
- pKd [5, 27]: 4.08
- pKd [6, 27]: 3.8
- pKd [7, 27]: 4.71
- pKd [8, 27]: below the threshold
- pKd [9, 27]: 4.02
- pKd [10, 27]: below the threshold
- pKd [11, 27]: below the threshold
- pKd [12, 27]: below the threshold
- pKd [13, 27]: below the threshold
- pKd [14, 27]: 3.58
- pKd [15, 27]: below the threshold
- pKd [16, 27]: 3.48
- pKd [17, 27]: 3.48
- pKd [18, 27]: below the threshold
- pKd [19, 27]: below the threshold
- pKd [20, 27]: below the threshold
- pKd [21, 27]: below the threshold
- pKd [22, 27]: 3.91
- pKd [23, 27]: 3.69
- pKd [24, 27]: 4.22
- pKd [25, 27]: below the threshold
- pKd [26, 27]: below the threshold

Binder: SSSNSEDTEM [NHERF3, Q5T2W1]
- pKd [1, 28]: below the threshold
- pKd [2, 28]: below the threshold
- pKd [3, 28]: below the threshold
- pKd [4, 28]: below the threshold
- pKd [5, 28]: below the threshold
- pKd [6, 28]: below the threshold
- pKd [7, 28]: below the threshold
- pKd [8, 28]: below the threshold
- pKd [9, 28]: below the threshold
- pKd [10, 28]: below the threshold
- pKd [11, 28]: below the threshold
- pKd [12, 28]: below the threshold
- pKd [13, 28]: below the threshold
- pKd [14, 28]: below the threshold
- pKd [15, 28]: below the threshold
- pKd [16, 28]: below the threshold
- pKd [17, 28]: below the threshold
- pKd [18, 28]: below the threshold
- pKd [19, 28]: below the threshold
- pKd [20, 28]: below the threshold
- pKd [21, 28]: below the threshold
- pKd [22, 28]: below the threshold
- pKd [23, 28]: below the threshold
- pKd [24, 28]: below the threshold
- pKd [25, 28]: below the threshold
- pKd [26, 28]: below the threshold
